Experimental data as given in publication PMC9267027, “Discovery of a New Microbial Origin Cold-Active Neopullulanase Capable for Effective Conversion of Pullulan to Panose” (International Journal of Molecular Sciences, 2022).
Where “and” joins values, the source holds several entries; their conditions need not be identical. Equal values may be shown once.

Target: the molecule itself
Assay: AUC; sedimentation velocity, 50 mM Na2HPO4-NaH2PO4 buffer pH 7.0, 20 °C, 38,000 rpm, absorbance at 280 nm, c(s) model in SEDFIT; oligomeric state

B1: Maltogenic amylase (MAase) ThMA from the Thermus strain (enzyme)
chain: MRKEAIHHRSTDNFAYAYDSETLHLRLQTKKNDVDHVELLFGDPYEWHDGAWQFQTMPMRKTGSDGLFDYWLAEVKPPYRRLRYGFVLRAGGEKLVYTEKGFYHEAPSDDTAYYFCFPFLHRVDLFQAPDWVKDTVWYQIFPERFANGNPAISPKGARPWGSEDPTPTSFFGGDLQGIIDHLDYLADLGITGIYLTPIFRAPSNHKYDTADYFEIDPHFGDKETLKTLVKRCHEKGIRVMLDAVFNHCGYEFAPFQDVLKNGAASRYKDWFHIREFPLQTEPRPNYDTFAFVPHMPKLNTAHPEVKRYLLDVATYWIREFDIDGWRLDVANEIDHQFWREFRQAVKALKPDVYILGEIWHDAMPWLRGDQFDAVMNYPLADAALRFFAKEDMSASEFADRLMHVLHSYPKQVNEAAFNLLGSHDTPRLLTVCGGDVRKVKLLFLFQLTFTGSPCIYYGDEIGMTGGNDPECRKCMVWDPEKQNKELYEHVKQLIALRKQYRALRRGDVAFLTADDEVNHLVYAKTDGNETVMIIINRSNEAAEIPMPIDARGKWLVNLLTGERFAAEAETLCVSLPPYGFVLYAVESW
notes: ThMA, maltogenic amylase of a Thermus strain (AAC15072.1); used as the control in analytical ultracentrifugation; the construct is not described
- stoichiometry N: 2 and 4
